In patent US20160200782A1 (MOERAE MATRIX, published 2016):

T1: EphB2(h) (human, UniProt P29323 565-986, limits assumed)
T1 sequence (looked up): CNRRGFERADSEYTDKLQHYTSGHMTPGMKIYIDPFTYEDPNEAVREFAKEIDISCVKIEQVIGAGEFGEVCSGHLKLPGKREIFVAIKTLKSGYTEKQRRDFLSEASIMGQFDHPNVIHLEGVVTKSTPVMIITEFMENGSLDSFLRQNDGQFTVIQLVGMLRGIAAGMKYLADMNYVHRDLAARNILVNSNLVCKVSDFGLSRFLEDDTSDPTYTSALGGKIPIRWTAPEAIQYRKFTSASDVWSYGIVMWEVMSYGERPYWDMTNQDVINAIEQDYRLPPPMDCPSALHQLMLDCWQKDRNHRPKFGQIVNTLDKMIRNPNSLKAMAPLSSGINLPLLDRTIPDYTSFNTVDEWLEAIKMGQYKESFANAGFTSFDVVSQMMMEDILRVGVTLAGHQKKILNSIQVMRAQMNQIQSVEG

T2: IKKβ(h) (human, UniProt O14920 1-756, limits assumed)
T2 sequence (looked up): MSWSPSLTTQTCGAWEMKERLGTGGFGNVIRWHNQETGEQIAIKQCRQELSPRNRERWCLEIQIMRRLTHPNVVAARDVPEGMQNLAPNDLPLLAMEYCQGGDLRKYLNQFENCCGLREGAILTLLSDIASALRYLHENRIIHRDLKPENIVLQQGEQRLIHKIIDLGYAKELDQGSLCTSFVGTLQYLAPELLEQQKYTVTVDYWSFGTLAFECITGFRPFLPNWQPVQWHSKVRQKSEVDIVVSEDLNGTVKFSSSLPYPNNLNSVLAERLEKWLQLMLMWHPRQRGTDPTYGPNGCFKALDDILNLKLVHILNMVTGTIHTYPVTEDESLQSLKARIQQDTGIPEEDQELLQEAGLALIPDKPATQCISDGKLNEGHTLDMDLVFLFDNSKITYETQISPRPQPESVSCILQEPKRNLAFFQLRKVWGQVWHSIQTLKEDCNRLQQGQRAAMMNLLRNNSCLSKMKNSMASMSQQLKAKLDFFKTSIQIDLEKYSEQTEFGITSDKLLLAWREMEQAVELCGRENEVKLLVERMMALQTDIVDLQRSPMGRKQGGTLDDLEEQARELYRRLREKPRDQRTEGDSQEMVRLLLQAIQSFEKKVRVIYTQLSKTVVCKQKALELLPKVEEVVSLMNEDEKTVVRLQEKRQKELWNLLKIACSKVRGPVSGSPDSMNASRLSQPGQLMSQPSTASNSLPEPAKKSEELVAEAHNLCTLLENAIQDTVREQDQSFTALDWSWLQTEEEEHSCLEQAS

T3: PrKX(h) (human, UniProt P51817 1-358)
T3 sequence (looked up): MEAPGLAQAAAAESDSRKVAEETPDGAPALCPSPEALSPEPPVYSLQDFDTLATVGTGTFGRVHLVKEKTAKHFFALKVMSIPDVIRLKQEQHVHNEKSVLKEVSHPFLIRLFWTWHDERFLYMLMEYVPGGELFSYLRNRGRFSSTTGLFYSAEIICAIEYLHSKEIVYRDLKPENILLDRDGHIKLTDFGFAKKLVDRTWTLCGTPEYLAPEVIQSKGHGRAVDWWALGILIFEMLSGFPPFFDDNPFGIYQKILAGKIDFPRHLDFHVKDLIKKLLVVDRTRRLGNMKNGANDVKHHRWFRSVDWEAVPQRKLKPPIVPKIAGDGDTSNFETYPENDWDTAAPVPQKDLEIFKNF

T4: PKCµ(h) (human, UniProt Q15139 1-912, limits assumed)
T4 sequence (looked up): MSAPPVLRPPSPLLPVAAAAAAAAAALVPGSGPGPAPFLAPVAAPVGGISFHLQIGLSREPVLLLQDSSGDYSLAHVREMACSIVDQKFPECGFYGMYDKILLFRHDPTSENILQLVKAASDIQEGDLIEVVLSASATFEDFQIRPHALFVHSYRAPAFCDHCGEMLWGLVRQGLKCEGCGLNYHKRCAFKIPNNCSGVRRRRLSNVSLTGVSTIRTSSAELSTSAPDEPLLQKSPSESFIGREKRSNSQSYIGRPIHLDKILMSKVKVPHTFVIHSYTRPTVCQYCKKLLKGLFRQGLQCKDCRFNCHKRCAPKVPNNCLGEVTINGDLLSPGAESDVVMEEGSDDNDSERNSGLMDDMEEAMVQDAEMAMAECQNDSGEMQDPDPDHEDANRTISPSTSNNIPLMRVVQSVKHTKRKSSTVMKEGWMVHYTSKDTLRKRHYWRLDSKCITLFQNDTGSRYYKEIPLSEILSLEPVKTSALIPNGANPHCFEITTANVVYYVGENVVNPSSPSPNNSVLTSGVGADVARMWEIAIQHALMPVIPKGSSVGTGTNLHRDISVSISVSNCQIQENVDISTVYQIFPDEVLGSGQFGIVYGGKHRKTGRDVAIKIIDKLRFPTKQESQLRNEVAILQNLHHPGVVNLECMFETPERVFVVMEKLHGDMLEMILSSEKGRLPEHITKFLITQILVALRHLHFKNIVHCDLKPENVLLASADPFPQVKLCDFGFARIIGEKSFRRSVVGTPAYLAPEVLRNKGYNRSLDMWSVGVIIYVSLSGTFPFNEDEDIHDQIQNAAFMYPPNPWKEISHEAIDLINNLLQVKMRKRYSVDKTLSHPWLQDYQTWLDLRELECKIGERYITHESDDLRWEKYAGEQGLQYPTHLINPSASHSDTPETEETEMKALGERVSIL

T5: EphA5(h) (human, UniProt P54756 595-1037, limits assumed)
T5 sequence (looked up): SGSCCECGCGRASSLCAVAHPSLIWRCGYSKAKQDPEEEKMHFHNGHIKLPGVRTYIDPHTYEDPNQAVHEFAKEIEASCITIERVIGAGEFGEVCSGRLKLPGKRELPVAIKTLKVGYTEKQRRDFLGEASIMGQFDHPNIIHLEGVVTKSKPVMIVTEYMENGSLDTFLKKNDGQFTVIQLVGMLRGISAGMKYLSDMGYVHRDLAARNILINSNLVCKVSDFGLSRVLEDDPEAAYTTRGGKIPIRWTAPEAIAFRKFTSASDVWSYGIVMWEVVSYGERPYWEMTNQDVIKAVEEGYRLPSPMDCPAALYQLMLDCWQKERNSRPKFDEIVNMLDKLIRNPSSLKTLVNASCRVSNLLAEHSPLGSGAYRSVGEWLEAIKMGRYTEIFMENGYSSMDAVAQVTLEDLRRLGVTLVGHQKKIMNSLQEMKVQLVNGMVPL


Key:
Experiment in all cases: cell-based or functional assay
MSSK1(h) = MSSK1(h) (human, UniProt Q9UPE1 1-567, limits assumed)
MSSK1(h), sequence (Q9UPE1 whole entry): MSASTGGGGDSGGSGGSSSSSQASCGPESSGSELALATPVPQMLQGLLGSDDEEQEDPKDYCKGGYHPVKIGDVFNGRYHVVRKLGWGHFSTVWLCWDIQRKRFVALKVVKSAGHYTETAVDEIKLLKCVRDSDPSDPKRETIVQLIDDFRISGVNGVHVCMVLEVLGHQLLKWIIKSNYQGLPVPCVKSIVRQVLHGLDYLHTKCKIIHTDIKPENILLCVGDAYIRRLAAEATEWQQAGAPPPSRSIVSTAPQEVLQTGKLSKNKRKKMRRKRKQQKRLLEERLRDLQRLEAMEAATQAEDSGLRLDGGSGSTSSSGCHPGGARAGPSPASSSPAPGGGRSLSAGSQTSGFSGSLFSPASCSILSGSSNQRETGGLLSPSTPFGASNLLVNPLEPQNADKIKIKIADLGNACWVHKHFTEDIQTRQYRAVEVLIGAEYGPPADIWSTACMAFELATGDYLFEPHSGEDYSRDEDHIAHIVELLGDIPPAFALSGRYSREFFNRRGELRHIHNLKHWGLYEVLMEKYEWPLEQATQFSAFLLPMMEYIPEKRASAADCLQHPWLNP

EphB2(h) = molecular target: T1, EphB2(h)
IKKβ(h) = molecular target: T2, IKKβ(h)
PrKX(h) = molecular target: T3, PrKX(h)
PKCµ(h) = molecular target: T4, PKCµ(h)
EphA5(h) = molecular target: T5, EphA5(h)

Row | % activity (MSSK1(h)) [%] | % activity (EphB2(h)) [%] | % activity (IKKβ(h)) [%] | % activity (PrKX(h)) [%] | % activity (PKCµ(h)) [%] | % activity (EphA5(h)) [%] | Binder
1 | 77 | 18 | 84 | 61 | 22 | 18 | FAKLAARLYRKALARQLGVAA [MMI-0300]
2 | 75 | 22 | 84 | 76 | 14 | 24 | KAFAKLAARLYRKALARQLGVAA [MMI-0400]
